The values that follow are results of earlier work, collected in paper PMC7143314.

In the data set the target is RAF RBD (Homo sapiens) (UniProt P04049).

In the case of RAS (from UniProt P01116), the Kd is 0.02 µM.

What is called Kd is the concentration at which binding is half-saturated.
